In US20250361274A1, “PEPTIDE AND PEPTIDE-CONTAINING AGENT” (PEPTIDREAM INC., priority 2022, published 2025):
Numbered stars: 1 amine (or outer) side, 2 acyl side, 3 side chain; on linkers, the order of the positions; unused ones are H or OH. Bridge positions count the residues as written; N and C are the ends. Square brackets hold non-standard residues; d marks the D form. Ends that are not written are not given here. KCOpipzaa = N6-(4-(carboxymethyl)piperazine-1-carbonyl)-L-lysine, O=C(NCCCC[C@H](N[*:1])C(=O)[*:2])N1CCN(CC(=O)[*:3])CC1; Bph3C = (S)-2-amino-3-(3'-chloro-[1,1'-biphenyl]-4-yl)propanoic acid, O=C([C@H](Cc1ccc(-c2cccc(Cl)c2)cc1)N[*:1])[*:2]; Cha4tH = (S)-2-amino-3-((1r,4S)-4-hydroxycyclohexyl)propanoic acid, O=C([C@H](C[C@H]1CC[C@H](O[*:3])CC1)N[*:1])[*:2]; 3Pal(6-Ph) = N[C@@H](Cc1ccc(-c2ccccc2)nc1)C(=O)O; Phe(4-COOH) = N[C@@H](Cc1ccc(C(=O)O)cc1)C(=O)O; NMePhe(3-Me) = CN[C@@H](Cc1cccc(C)c1)C(=O)O; Bip = N[C@@H](Cc1ccc(-c2ccccc2)cc1)C(=O)O; Phe(3-Cl) = N[C@@H](Cc1cccc(Cl)c1)C(=O)O; Phe(4-Cl) = N[C@@H](Cc1ccc(Cl)cc1)C(=O)O; Phe(4-F) = N[C@@H](Cc1ccc(F)cc1)C(=O)O; Hyp = O=C(O)[C@@H]1C[C@@H](O)CN1; NMeF = CN[C@@H](Cc1ccccc1)C(=O)O; 4Pal = N[C@@H](Cc1ccncc1)C(=O)O; Cha = N[C@@H](CC1CCCCC1)C(=O)O; Abu = CC[C@H](N)C(=O)O; βAla = NCCC(=O)O

Key:
[1] = molecular target: T1, BMP7 (Homo sapiens, UniProt P18075); assay: BMP7 signal transduction inhibitory activity: SMAD1 phosphorylation by BMP7 stimulus, A549 cells; assay type: cell-based; conditions: for aLISA BMP7: inhibition of SMAD1 phosphorylation by BMP7 stimulus, A549 cells
T1 sequence (P18075 293-431): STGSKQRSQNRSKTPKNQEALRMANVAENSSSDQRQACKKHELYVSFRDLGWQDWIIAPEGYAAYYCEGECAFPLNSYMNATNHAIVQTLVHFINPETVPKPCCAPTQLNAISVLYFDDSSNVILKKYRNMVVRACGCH
Procedure: In the present Example, BMP7 signal transduction inhibitory activity of each peptide consisting of an amino acid sequence set forth in any of SEQ ID NOs: 5 to 240 and 243 to 421 synthesized in Example 10 was verified by phosphorylation of SMAD1 caused by BMP7 stimulus. The evaluation was performed using 10 nM of BMP7 instead of BMP 4. Regarding SEQ ID NOs: 5 to 240, the concentrations of the peptides synthesized in the same manner as in Example 2 (shown as 2 in the row of Synthesis) were 1 nM, 10 nM, and 100 nM, and the concentrations of the peptides synthesized in the same manner as in Example 1 (shown as 1 in the row of Synthesis) were 10 nM, 100 nM, and 1,000 nM, similarly with Example 11. […] Regarding SEQ ID NOs: 243 to 273 and SEQ ID NOs: 299 to 321, the test was performed at the concentrations (10, 100, 1,000 nM) described in Table 6. […] Regarding SEQ ID NOs: 274 to 298, the test was performed at the concentrations (100, 300, 1,000 nM) described in Table 6. […] Regarding SEQ ID NOs: 322 to 370 and SEQ ID NOs: 393 to 421, the test was performed at the concentrations (1, 10, 100 nM). […] Regarding SEQ ID NOs: 371 to 391, the test was performed at the concentrations (10, 30, 90 nM). […] The evaluation tests of the signal transduction inhibitory activities of SEQ ID NOs: 87, 177, and 181 are as follows. Specifically, the inhibitory activity of BMP4 was evaluated in the same manner as in Example 11 that used A549 cells. Eight concentrations of the peptides were used at a common ratio of 1/3 starting from 2 nM. The inhibitory activity of BMP7 was evaluated in the same manner as in Example 12. Eight concentrations of the peptides were used at a common ratio of 1/3 starting from 100 nM. Note that recombinant Human Noggin Protein (R&D) as a positive control was used at the same concentration as that of the peptide. […] The inhibitory activity of BMP7 was evaluated using eight concentrations of the peptides at a common ratio of 1/3 starting from 1,000 nM in the same manner as in Example 12.

[2] = molecular target: T2, BMP4 (Homo sapiens, UniProt P12644); assay: BMP4 signal transduction inhibitory activity: SMAD1 phosphorylation by BMP4 stimulus, AlphaLISA SureFire, A549 cells; assay type: cell-based; conditions: for aLISA BMP4: inhibition of SMAD1 phosphorylation by BMP4 stimulus, A549 cells
T2 sequence (P12644 293-408): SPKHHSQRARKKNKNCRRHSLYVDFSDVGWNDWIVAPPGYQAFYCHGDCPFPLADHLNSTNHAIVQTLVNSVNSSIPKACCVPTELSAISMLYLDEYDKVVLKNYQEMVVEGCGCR
Procedure: In the present Example, a BMP4 signal transduction inhibitory activity of each peptide consisting of an amino acid sequence set forth in any of SEQ ID NOs: 5 to 240 and 243 to 421 synthesized in Example 10 was verified by phosphorylation of SMAD1 caused by BMP4 stimulus. A549 cells were cultured in MEM (Thermo Fisher Scientific) containing 10% FBS (Thermo Fisher Scientific), 1×Non-essential amino acids (Thermo Fisher Scientific), and 50 μg/mL Gentamicin. After TrypLE (Gibco) was used to peel the cells, seeding was performed in a 96-well plate for adhesion cells so that the number of cells would be 20,000 per well, followed by culturing for 48 hours. After the cells were cultured as described above, the culture medium was replaced with a peptide solution or recombinant Human Noggin Protein (R&D) solution as a positive control diluted to various concentrations in a nutrition-starved culture medium containing 0.1% BSA (Sigma) instead of FBS Thirty minutes after culturing, […], to stimulate it for 60 minutes. The culture medium was removed and the cells were lysed with Lysis Buffer provided with AlphaLISA (registered trademark) SureFire (registered trademark) Ultra SMAD1 (p-[…]/465) Assay kit (PerkinElmer). According to the protocol of the kit, a signal was detected using SpectraMax (registered trademark) Paradigm (registered trademark) multimode microplate reader (Molecular Devices). The obtained signal was analysed using GraphPad Prism (GraphPad Software). The % inhibition was calculated by considering non-stimulation as 100% inhibition and BMP stimulation only as 0% inhibition. Regarding SEQ ID NOs: 5 to 187, the concentrations of the peptides synthesized in the same manner as in Example 2 (shown as 2 in the row of Synthesis) were 0.02 nM, 0.2 nM, and 2 nM, and the concentrations of the peptides synthesized in the same manner as in Example 1 (shown as 1 in the row of Synthesis) were 0.2 nM, 2 nM, and 20 nM. The evaluation results were based on the results of evaluation using the peptides synthesized in the same manner as in Example 2. […] Regarding SEQ ID NOs: 243 to 321, the test was performed at the concentrations described in Table 6. […] Regarding SEQ ID NOs: 322 to 421, the test was performed at the concentrations described in Table 7. […] The evaluation tests of the signal transduction inhibitory activities of SEQ ID NOs: 87, 177, and 181 are as follows. Specifically, the inhibitory activity of BMP4 was evaluated in the same manner as in Example 11 that used A549 cells. Eight concentrations of the peptides were used at a common ratio of 1/3 starting from 2 nM. The inhibitory activity of BMP7 was evaluated in the same manner as in Example 12. Eight concentrations of the peptides were used at a common ratio of 1/3 starting from 100 nM. Note that recombinant Human Noggin Protein (R&D) as a positive control was used at the same concentration as that of the peptide. […] The inhibitory activity of BMP7 was evaluated using eight concentrations of the peptides at a common ratio of 1/3 starting from 1,000 nM in the same manner as in Example 12.

[3] = BMP7 10 nM stimulus, peptide conc. in assay 1, 10, 100 nM
[4] = BMP4 0.2 nM stimulus, peptide conc. in assay 0.2, 2, 20 nM
[5] = BMP7 10 nM stimulus, peptide conc. in assay 10, 30, 90 nM
[6] = BMP4 0.2 nM stimulus, peptide conc. in assay 2, 20, 200 nM
[7] = AlphaLISA, class by peptide concentration zone

399 (FG[NMeF]G[Bip]GDE[Cha]Q[NMeF]L[Abu]CG-NH2; not fully specified) [compound 399]
aLISA BMP7 (10 nM) % inh [1, 3]: C (showed less than 30% of inhibitory activity in a zone to which the peptide was added in an amount of 1 nM and showed 30% or more of inhibitory activity in 10 nM-addition zone)
aLISA BMP4 (0.2 nM) % inh [2, 4]: ND (the inhibitory activity was less than 30% at the maximum concentration evaluated)

415 (FGFGAGDEAEFLPCAE; not fully specified; MOD_RES 3 F represents Methyl-L-phenylalanine(MeF); MOD_RES 5 A represents (S)-2-Amino-3-(6-phenylpyridin-3-yl)propanoic acid(3Py6Ph); MOD_RES 9 A represents (S)-2-Amino-3-cyclohexylpropanoic acid(Cha); MOD_RES 10 E represents L-2-Amino adipic acid (Hgl); MOD_RES 11 F represents Methyl-L-phenylalanine(MeF); MOD_RES 13 P represents (2S,4S)-4-Hydroxypyrrolidine-2-carboxylic acid(P4Sh); MOD_RES 15 A) [compound 415]
aLISA BMP7 (10 nM) % inh [1, 3]: D (showed less than 30% of inhibitory activity in 10 nM-addition zone and showed 30% or more of inhibitory activity in 100 nM-addition zone)
aLISA BMP4 (0.2 nM) % inh [2, 4]: ND (the inhibitory activity was less than 30% at the maximum concentration evaluated)

357 (FG[NMeF]G[Bip]GDD[Cha]A[NMeF]L[Phe(4-COOH)]CG-NH2; not fully specified (N-terminus, bridges)) [compound 357]
aLISA BMP7 (10 nM) % inh ([1]; SMAD1 phosphorylation, BMP7 10 nM, peptide conc. in assay 1, 10, 100 nM): D (showed less than 30% of inhibitory activity in 10 nM-addition zone and showed 30% or more of inhibitory activity in 100 nM-addition zone)
aLISA BMP4 (0.2 nM) % inh ([2]; SMAD1 phosphorylation, BMP4 0.2 nM, peptide conc. in assay 0.2, 2, 20 nM): ND (the inhibitory activity was less than 30% at the maximum concentration evaluated)

390 (FG[NMeF]G[Bip]GDD[Cha]A[NMePhe(3-Me)]LHCG-NH2) [compound 390]
aLISA BMP7 (10 nM) % inh [1, 5]: E (showed 30% or more of inhibitory activity in 10 nM-addition zone)
aLISA BMP4 (0.2 nM) % inh [2, 6]: B (showed less than 30% of inhibitory activity in 20 nM-addition zone and showed 30% or more of inhibitory activity in 200 nM-addition zone)

373 ([Phe(4-Cl)]G[NMeF]G[Bip]GDD[Cha]A[NMeF]LHCG-NH2; not fully specified) [compound 373]
aLISA BMP7 (10 nM) % inh [1, 5]: F (showed less than 30% of inhibitory activity in 10 nM-addition zone and showed 30% or more of inhibitory activity in 30 nM-addition zone)
aLISA BMP4 (0.2 nM) % inh [2, 6]: A (showed less than 30% of inhibitory activity in 2 nM-peptide-addition zone and showed 30% or more of inhibitory activity in 20 nM-addition zone)

77 ({CH2CO}-ERVYVDR[Bip][KCOpipzaa]YP[Bip][Phe(4-F)][Phe(4-COOH)][Phe(4-COOH)]SCG-NH2; thioether N-17; not fully specified) [compound 77]
aLISA BMP7 [1, 7]: C (showed less than 50% of inhibitory activity in 10 nM-addition zone and showed 50% or more of inhibitory activity in 100 nM-addition zone)
aLISA BMP4 [2, 7]: A (showed an inhibitory activity of 50% or more in a zone to which the peptide was added to in an amount of 0.2 nM)

121 ({CH2CO}-ERV[Phe(4-COOH)]VDR[Bip]PYP[Bip]Y[Phe(4-COOH)][Phe(4-COOH)]SC[βAla][dE]-OH; thioether N-17; not fully specified) [compound 121]
aLISA BMP7 ([1]; peptides of Synthesis 2, classes A-D, ND): B (showed less than 50% of inhibitory activity in 1 nM-addition zone and showed 50% or more of inhibitory activity in 10 nM-addition zone)
aLISA BMP4 ([2]; peptides of Synthesis 2, classes A-C, ND): A (showed an inhibitory activity of 50% or more in a zone to which the peptide was added to in an amount of 0.2 nM)

321 (ERV[Phe(4-COOH)][Cha4tH][KCOpipzaa]R[3Pal(6-Ph)][KCOpipzaa]Y[Hyp][Bph3C][4Pal][Phe(4-COOH)][Phe(4-COOH)]SCG-NH2) [compound 321]
aLIZA BMP7 (10 nM) % inh ([1]; BMP7 10 nM, peptide 10, 100, 1000 nM, Table 6): E (showed less than 30% of inhibitory activity in 100 nM-addition zone and showed 30% or more of inhibitory activity in 1,000 nM-addition zone)
aLIZA BMP4 (0.2 nM) % inh ([2]; BMP4 0.2 nM, peptide 0.02, 0.2, 2 nM, Table 6): B (showed less than 30% of inhibitory activity in 0.02 nM-addition zone and showed 30% or more of inhibitory activity in 0.2 nM-addition zone)

48 (Ac-ARVYVDR[Bip]PYP[Bip]Y[Phe(4-COOH)][Phe(4-COOH)]SC[βAla]K-NH2; thioether (positions not given here); not fully specified (bridges)) [compound 48]
aLISA BMP7 [1, 7]: ND (the inhibitory activity was less than 30% at the maximum concentration evaluated)
aLISA BMP4 [2, 7]: C (showed an inhibitory activity of less than 50% in 0.2 nM-addition zone and showed an inhibitory activity of 50% or more in 2 nM-addition zone were defined as B or C)

379 (FG[NMeF]G[Phe(3-Cl)]GDD[Cha]A[NMeF]LHCG-NH2; not fully specified) [compound 379]
aLISA BMP7 (10 nM) % inh [1, 5]: G (showed less than 30% of inhibitory activity in 30 nM-addition zone and showed 30% or more of inhibitory activity in 90 nM-addition zone)
aLISA BMP4 (0.2 nM) % inh [2, 6]: ND (the inhibitory activity was less than 30% at the maximum concentration evaluated)
